Laboratory results taken from PMC8715119, “Second-generation non-hematopoietic erythropoietin-derived peptide for neuroprotection” (Redox Biology, 2021).

Experiments:
[1] = system: differentiated neuronal PC12 cells; assay: Cellular ROS level by H2DCFDA under H2O2; type: cell-based, rat; conditions: H2O2 for 6 h; H2DCFDA staining; n = 5; Fig. 4b
Method: PC12 cells (#CRL-1721, ATCC, USA), a rat pheochromocytoma cell line derived from the adrenal medulla (#CRL-1721, ATCC, USA), were seeded on a dish, which was coated by poly L-lysine (0.01%; Sigma Chemical Co., USA), and grown in RPMI 1640 medium (#11875093, Gibco, USA), supplemented with 10% heat-inactivated horse serum (#26050088, Gibco, USA), 5% fetal bovine serum (FBS) (#SH30919.03, Hyclone, USA), and 1% penicillin/streptomycin at 37°C with 5% CO2. For neuronal differentiation, PC12 cells were plated at a density of 1.25x10^3 cell/cm^2 into 96-well plates coated with collagen 1 (#354236, BD Biosciences, USA) and grown in RPMI 1640 medium supplemented with 50 ng/ml nerve growth factor (NGF) (BD Biosciences, USA) and 0.5% FBS for 10 days. The NGF-supplemented media was replaced with fresh media every 3 days during neuronal differentiation.
(§1) The cellular ROS level was measured using 2′,7′-dichlorodihydrofluorescein diacetate (H2DCFDA) (#D399, Invitrogen, USA). The cells were incubated with 5 μM H2DCFDA in PBS for 30 min, washed with PBS, and then resuspended in the medium for 2 h. After treatment of H2O2 without or with reEPO, or peptide, we monitored the oxidative stress by measuring the fluorescence intensities of H2DCFDA by using excitation and emission wavelengths of 485 nm and 535 nm, respectively.

JAK2 = assay: Time-series immunoblot of phosphorylated JAK2; type: cell-based, rat; conditions: undifferentiated PC12 cells; 1 nM; up to 90 min; normalized by JAK2; n = 3
Method: PC12 or HT-22 cells were lysed in 100 mM Tris-Cl (pH 6.8) with 4% SDS. The lysates were loaded onto sodium dodecyl sulfate-polyacrylamide gel electrophoresis (SDS-PAGE) (8–10%), and the proteins were transferred onto the nitrocellulose membrane. The membrane was blocked with 0.1% TBST and 5% non-fat dry milk at 25°C for 30 min. Primary antibodies were diluted in 0.1% TBST and 3% bovine serum albumin (BSA). The primary antibodies included anti-pJAK2 (#3776, Cell Signaling Technology, USA), anti-JAK2 (#3230, Cell Signaling Technology, USA), anti-pSTAT5 (#9351, Cell Signaling Technology, USA), anti-STAT5 ([…], Cell Signaling Technology, USA), anti-pAKT (#9271, Cell Signaling Technology, USA), anti-AKT (#9272, Cell Signaling Technology, USA), anti-pERK (#9101, Cell Signaling Technology, USA) anti-ERK (#9102, Cell Signaling Technology, USA), anti-EPOR (#sc-365662, Santa Cruz Biotechnology, USA), anti-β-Actin (Santa Cruz Biotechnology, USA), anti-Bax (Santa Cruz Biotechnology, USA), anti-cleaved Casp3 (Cell Signaling Technology, USA), and anti-cleaved Parp1 (Cell Signaling Technology, USA).

male mice (C57BL/6 N) = assay: Measurement of the hematopoietic effect after repeated subcutaneous injection; type: in vivo; conditions: mouse, three times a week for four weeks, reEPO 150 IU/kg, ML1-h3 0.2 mg/kg
Method: The protocol of this experiment was approved by the Animal Care and Use Committee of the DGIST (DGIST-IACUC-21090804-0000). After two weeks for quarantine and acclimatization, male mice (C57BL/6 N, Koatech, Korea) were subcutaneously injected with vehicle (n = 6), reEPO (n = 6, 150 IU/kg), or ML1-h3 (n = 6, 0.2 mg/kg) three times a week for four weeks. After three days of final injection, they were anesthetized by injection of zoletil (50 mg/kg), and their blood was gathered from posterior vena cava into an EDTA-coated tube (#367863, BD Vacutainer, USA) using a syringe. The blood samples were analyzed by an automatic hematology analyzer (#ADIVIA 2120i, SIEMENS Healthineers, Germany) in DGMIF (Korea).

HT-22 cells = assay: ROS level by H2DCFDA after hypoxia and re-oxygenation; type: cell-based, mouse; conditions: reEPO 0.5 IU/ml, ML1-h3 1 ng/ml, n = 12
Method: HT-22 cells (kindly provided by Prof. Gil-Saeng Jeong in Keimyung University), an immortalized mouse hippocampal cell line, were cultured at 37°C and 5% CO2 in Dulbecco's modified eagle medium (DMEM, Invitrogen, USA) supplemented with 10% FBS and 1% penicillin/streptomycin at 37°C and 5% CO2.
as §1
The HT-22 cells were seeded onto 96-well or 6-well plates. The next day, HT-22 cells were placed inside a sealed air-tight container consisting of an anaeropack (Mitsubishi Gas Company, Tokyo, Japan), which can induce a hypoxic atmosphere by absorbing oxygen and generating carbon dioxide. The cells were maintained in the hypoxic condition at 37°C for 18 h and re-oxygenated for 3 h at 37°C and 5% CO2. Subsequently, the cells were treated with reEPO or the peptides for 19 h before viability analysis.

[2] = system: rat primary cortical neurons; assay: Viability (Calcein-AM) under glutamate-induced excitotoxicity; type: cell-based; conditions: glutamate (30 μM) for 24 h, reEPO 0.5 IU/ml, peptides 1 ng/ml, n = 3, Fig. 4e
Method: On the embryonic day 17, embryonic cerebral cortices were dissected from pregnant Sprague–Dawley rats. The cerebral cortices were treated with 0.25% trypsin-EDTA (#25200056, Gibco, USA) and then mechanically dissociated into single cells by pipetting. The dissociated cells were plated on 96-well plates coated by 50 μg/ml poly-L-lysine (P8920, Sigma-Aldrich, USA) at a density of 2.5 × 10^4 cells per well. They were incubated in neurobasal medium (#21103049, Gibco, USA) containing 2% B27 supplement (#17504044, Gibco, USA), 0.5 mM L-glutamine (#15430614, Gibco, USA), 25 μM glutamic acid (#G1251, Sigma-Aldrich, USA), and 1% penicillin/streptomycin (#15140122, Gibco, USA) at 37°C with 5% CO2. The medium was changed to a fresh medium without glutamate every 3–4 days, and on day 10, glutamic acid (30 μM) was added to induce excitotoxicity in the cells treated with or without reEPO and peptides.
To measure the viability of rat primary cortical neurons, we used Calcein-AM (#C3100MP, Invitrogen, USA). Cultured rat cortical neurons plated on 96-well plates (2.5 × 10^4 cells per well) were incubated with Calcein-AM (3 μM) for 30 min after various treatments. The intensity of the Calcein-AM signal (excitation, 485 nm; detection 535 nm) was measured by using a micro plate reader (VersaMax, Molecular Devices, USA).

reEPO: Recombinant human EPO (Epoetin-α, CJ HealthCare Corporation)
Level of reactive oxygen species (ROS) induced by H2O2 [1]: decreased the levels of reactive oxygen species (ROS)
Level of phosphorylated JAK2 (pJAK2) over time (JAK2): upregulated the level of phosphorylated JAK2 in ^1007/1008Tyr (pJAK2), an active form of JAK2 at 30–60 min; pJAK2 returned to the basal level at 90 min
Body weight (male mice (C57BL/6 N); n = 6): No significant difference
Cell number of platelet (male mice (C57BL/6 N); n = 6, versus vehicle): did not significantly affect
Content of haemoglobin (male mice (C57BL/6 N); n = 6, versus vehicle): dramatically increased
Hematocrit level (male mice (C57BL/6 N); n = 6, versus vehicle): dramatically increased
Number of erythrocytes (male mice (C57BL/6 N); n = 6, versus vehicle): dramatically increased
Number of granulocytes, including neutrophils and eosinophils (male mice (C57BL/6 N); n = 6, versus vehicle): considerably decreased
Number of lymphocytes (male mice (C57BL/6 N); n = 6, versus vehicle): did not significantly affect
Number of monocytes (male mice (C57BL/6 N); n = 6, versus vehicle): did not significantly affect
Number of reticulocytes (male mice (C57BL/6 N); n = 6, versus vehicle): dramatically increased
Total number of white blood cells (male mice (C57BL/6 N); n = 6, versus vehicle): did not significantly affect
ROS level induced by H/R (HT-22 cells): decreased ROS level induced by H/R
Neuroprotective effect against glutamate-induced excitotoxicity (viability) [2]: showed a neuroprotective effect against glutamate-induced excitotoxicity
